Test results as given in the RNAGym collection of RNA variant scans (doi:10.1093/molbev/msab373).

B1: Azoarcus group I ribozyme (parent)
chain: GUGCCUUGCGCCGGGAAACCACGCAAGGGAUGGUGUCAAAUUCGGCGAAACCUAAGCGCCCGCCCGGGCGUAUGGCAACGCCGAGCCAAGCUUCGGCGCCUGCGCCGAUGAAGGUGUAGAGACUAGACGGCACCCACCUAAGGCAAACGCUAUGGUGAAGGCAUAGUCCAGGGAGUGGCGAAAGUCACACAAACCGG

Variants of: B1
Assay: reverse-splicing fitness (ratio to wild type); higher = more active; in vitro selection; Mg2+ level not given
Outline: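 An in vitro group I ribozyme library with randomized positions was T7-transcribed and gel-purified. In triplicate, 10 pmol RNA in EPPS pH 7.5 was reacted with 50 pmoles of a 30-nt RNA substrate for 1 h at 37 °C across several added MgCl2 levels (1–48 mM), then stopped with EDTA. Products were reverse transcribed from a substrate-complementary primer, PCR-amplified and sequenced (HiSeq 4000). Fitness is a variant's read proportion after selection over that before, normalised to wild type.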

Compared with C82U A111U A120C A145U C150U C169A U176A, C82U A111U A120C A145U C150U C169A U176C is lower in reverse-splicing fitness: 0.0119 for the first, 0.00781 for the second.

Going from C82U A111U A120C A145U C150U C169A U176G to C82U A111U A120C A145U C150U C169G, the reverse-splicing fitness rises from 0.00505 to 0.00796.

Compared with C82U A111U A120C A145U C150U C169G U176A, C82U A111U A120C A145U C150U C169G U176C is higher in reverse-splicing fitness: 0.011 for the first, 0.0115 for the second.

Compared with C82U A111U A120C A145U C150U C169G U176G, C82U A111U A120C A145U C150U C169U is higher in reverse-splicing fitness: 0.00554 for the first, 0.0101 for the second.

Going from C82U A111U A120C A145U C150U C169U U176A to C82U A111U A120C A145U C150U C169U U176C, the reverse-splicing fitness rises from 0.0145 to 0.0157.

Compared with C82U A111U A120C A145U C150U C169U U176G, C82U A111U A120C A145U C150U U176A is higher in reverse-splicing fitness: 0.00516 for the first, 0.0114 for the second.

Going from C82U A111U A120C A145U C150U U176C to C82U A111U A120C A145U C150U U176G, the reverse-splicing fitness falls from 0.0147 to 0.0051.

Going from C82U A111U A120C A145U C169A to C82U A111U A120C A145U C169A U176A, the reverse-splicing fitness rises from 0.00631 to 0.00849.

Compared with C82U A111U A120C A145U C169A U176C, C82U A111U A120C A145U C169A U176G is lower in reverse-splicing fitness: 0.00749 for the first, 0.00442 for the second.

Going from C82U A111U A120C A145U C169G to C82U A111U A120C A145U C169G U176A, the reverse-splicing fitness rises from 0.00727 to 0.00882.

Compared with C82U A111U A120C A145U C169G U176C, C82U A111U A120C A145U C169G U176G is lower in reverse-splicing fitness: 0.00955 for the first, 0.00433 for the second.

Compared with C82U A111U A120C A145U C169U, C82U A111U A120C A145U C169U U176A is higher in reverse-splicing fitness: 0.0107 for the first, 0.0155 for the second.

Going from C82U A111U A120C A145U C169U U176C to C82U A111U A120C A145U C169U U176G, the reverse-splicing fitness falls from 0.0136 to 0.00395.

Going from C82U A111U A120C A145U U176A to C82U A111U A120C A145U U176C, the reverse-splicing fitness rises from 0.0127 to 0.0165.

First: C82U A111U A120C A145U U176G
Second: C82U A111U A120C C150A
The reverse-splicing fitness of the first is lower: 0.00445 for the first, 0.0106 for the second.

Compared with C82U A111U A120C C150A C169A, C82U A111U A120C C150A C169A U176A is higher in reverse-splicing fitness: 0.00966 for the first, 0.0182 for the second.

Compared with C82U A111U A120C C150A C169A U176C, C82U A111U A120C C150A C169A U176G is lower in reverse-splicing fitness: 0.0182 for the first, 0.00592 for the second.

Compared with C82U A111U A120C C150A C169G, C82U A111U A120C C150A C169G U176A is higher in reverse-splicing fitness: 0.0083 for the first, 0.0178 for the second.

First: C82U A111U A120C C150A C169G U176C
Second: C82U A111U A120C C150A C169G U176G
The reverse-splicing fitness of the first is higher: 0.0181 for the first, 0.00669 for the second.

First: C82U A111U A120C C150A C169U
Second: C82U A111U A120C C150A C169U U176A
The reverse-splicing fitness of the first is lower: 0.0114 for the first, 0.0229 for the second.

Going from C82U A111U A120C C150A C169U U176C to C82U A111U A120C C150A C169U U176G, the reverse-splicing fitness falls from 0.0203 to 0.00688.

Going from C82U A111U A120C C150A U176A to C82U A111U A120C C150A U176C, the reverse-splicing fitness rises from 0.0126 to 0.0189.

Compared with C82U A111U A120C C150A U176G, C82U A111U A120C C150G is higher in reverse-splicing fitness: 0.0056 for the first, 0.00758 for the second.

First: C82U A111U A120C C150G C169A
Second: C82U A111U A120C C150G C169A U176A
The reverse-splicing fitness of the first is lower: 0.00864 for the first, 0.0105 for the second.

Compared with C82U A111U A120C C150G C169A U176C, C82U A111U A120C C150G C169A U176G is lower in reverse-splicing fitness: 0.0101 for the first, 0.00603 for the second.

First: C82U A111U A120C C150G C169G
Second: C82U A111U A120C C150G C169G U176A
The reverse-splicing fitness of the first is lower: 0.00613 for the first, 0.00688 for the second.

Compared with C82U A111U A120C C150G C169G U176C, C82U A111U A120C C150G C169G U176G is lower in reverse-splicing fitness: 0.00458 for the first, 0.00402 for the second.

First: C82U A111U A120C C150G C169U
Second: C82U A111U A120C C150G C169U U176A
The reverse-splicing fitness of the first is lower: 0.00868 for the first, 0.0091 for the second.

First: C82U A111U A120C C150G C169U U176C
Second: C82U A111U A120C C150G C169U U176G
The reverse-splicing fitness of the first is higher: 0.0149 for the first, 0.00538 for the second.

First: C82U A111U A120C C150G U176A
Second: C82U A111U A120C C150G U176C
The reverse-splicing fitness of the first is lower: 0.00451 for the first, 0.00725 for the second.

Compared with C82U A111U A120C C150G U176G, C82U A111U A120C C150U is higher in reverse-splicing fitness: 0.00352 for the first, 0.0179 for the second.

Going from C82U A111U A120C C150U C169A to C82U A111U A120C C150U C169A U176A, the reverse-splicing fitness rises from 0.00987 to 0.015.

Going from C82U A111U A120C C150U C169A U176C to C82U A111U A120C C150U C169A U176G, the reverse-splicing fitness falls from 0.0129 to 0.00474.

Going from C82U A111U A120C C150U C169G to C82U A111U A120C C150U C169G U176A, the reverse-splicing fitness rises from 0.00829 to 0.0138.

Compared with C82U A111U A120C C150U C169G U176C, C82U A111U A120C C150U C169G U176G is lower in reverse-splicing fitness: 0.0147 for the first, 0.00509 for the second.

First: C82U A111U A120C C150U C169U
Second: C82U A111U A120C C150U C169U U176A
The reverse-splicing fitness of the first is lower: 0.0134 for the first, 0.0177 for the second.

Going from C82U A111U A120C C150U C169U U176C to C82U A111U A120C C150U C169U U176G, the reverse-splicing fitness falls from 0.0157 to 0.00524.

First: C82U A111U A120C C150U U176A
Second: C82U A111U A120C C150U U176C
The reverse-splicing fitness of the first is lower: 0.011 for the first, 0.0158 for the second.

Compared with C82U A111U A120C C150U U176G, C82U A111U A120C C169A is higher in reverse-splicing fitness: 0.00696 for the first, 0.00717 for the second.

Going from C82U A111U A120C C169A U176A to C82U A111U A120C C169A U176C, the reverse-splicing fitness falls from 0.0152 to 0.0138.

First: C82U A111U A120C C169A U176G
Second: C82U A111U A120C C169G
The reverse-splicing fitness of the first is lower: 0.00513 for the first, 0.00824 for the second.

C82U A111U A120C C169G U176A showed a reverse-splicing fitness of 0.0148.
